Test results taken from paper doi:10.1101/2023.03.19.533240.

Target: MBP-DDX3X WT (UniProt O00571 1-662)
Test: time-resolved fluorescence anisotropy

Chain of MBP-DDX3X WT (O00571 whole entry): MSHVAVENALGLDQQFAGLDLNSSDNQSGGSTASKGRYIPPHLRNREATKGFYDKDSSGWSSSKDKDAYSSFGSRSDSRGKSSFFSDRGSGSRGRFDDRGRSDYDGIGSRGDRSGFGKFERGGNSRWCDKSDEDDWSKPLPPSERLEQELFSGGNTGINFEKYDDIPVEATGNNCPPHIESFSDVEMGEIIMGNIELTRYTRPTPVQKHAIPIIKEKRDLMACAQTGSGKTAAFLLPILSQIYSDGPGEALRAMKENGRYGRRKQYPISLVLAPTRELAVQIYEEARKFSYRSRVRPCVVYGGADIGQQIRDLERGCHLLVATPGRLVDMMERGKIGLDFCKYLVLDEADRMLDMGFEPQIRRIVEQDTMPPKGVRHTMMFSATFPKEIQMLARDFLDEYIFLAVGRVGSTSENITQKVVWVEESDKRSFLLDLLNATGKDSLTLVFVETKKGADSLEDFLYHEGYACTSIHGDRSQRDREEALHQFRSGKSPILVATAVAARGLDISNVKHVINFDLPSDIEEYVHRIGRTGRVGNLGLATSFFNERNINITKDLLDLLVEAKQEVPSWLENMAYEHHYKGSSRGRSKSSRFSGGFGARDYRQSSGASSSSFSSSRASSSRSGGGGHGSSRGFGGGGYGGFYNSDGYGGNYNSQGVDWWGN

UUUUUUUUUUUUUUUUUUUUUUUUCGGAGCGACGGCAGCGGU (ssRNA) [long strand 42-mer ssRNA]
binding result: binds
